The values that follow come from patent publication US7902330.

Starred links: 1 amine or outer side, 2 acyl side, 3 side chain; linkers in the order of their positions; H or OH if unused. Non-standard residues stand in square brackets, D forms with d. No end group written: not given here. *: point of attachment. 4‑nitrohippuryl = O=C(NCC(=O)*)c1ccc([N+](=O)[O-])cc1; Benzoyl(4-(pyrrol-1-yl)) = O=C(c1ccc(-n2cccc2)cc1)*; bis(2,3-dihydroxybenzyl) = not defined here; 10‑hydroxydecanoyl = O=C(CCCCCCCCCO)*; Cysteamide = C(CS[*:3])N[*:1]; Dap = NC[C@H](N)C(=O)O A value given as a limit tells only on which side of the number the result lay.

In one data set the target is other PKC isoforms. As to the kind of experiment: cell-based or functional assay.
The target in data set [1] is T1, acetyl-Pro-Arg-Lys-Arg-Glu-Gly-Ser-Val-Arg-Arg-Arg-NH2.
T1 chain: PRKREGSVRRR

Another data set addresses a subset of other PKCs. Briefly: cell-based or functional assay.
In data set [2] the target is protein kinase C δ, Q05655. As to the kind of experiment: cell-based or functional assay.

In the data set with other PKC isoforms, Ac-ARRGALR[Dap](Benzoyl(4-(pyrrol-1-yl)))A-Cysteamide [compound 3 (lead from library III)] yielded a selectivity for PKCα versus other PKC isoforms of less than 3 fold.

B1: protein kinase C ε (protein)
chain: MVVFNGLLKIKICEAVSLKPTAWSLRHAVGPRPQTFLLDPYIALNVDDSRIGQTATKQKTNSPAWHDEFVTDVCNGRKIELAVFHDAPIGYDDFVANCTIQFEELLQNGSRHFEDWIDLEPEGRVYVIIDLSGSSGEAPKDNEERVFRERMRPRKRQGAVRRRVHQVNGHKFMATYLRQPTYCSHCRDFIWGVIGKQGYQCQVCTCVVHKRCHELIITKCAGLKKQETPDQVGSQRFSVNMPHKFGIHNYKVPTFCDHCGSLLWGLLRQGLQCKVCKMNVHRRCETNVAPNCGVDARGIAKVLADLGVTPDKITNSGQRRKKLIAGAESPQPASGSSPSEEDRSKSAPTSPCDQEIKELENNIRKALSFDNRGEEHRAASSPDGQLMSPGENGEVRQGQAKRLGLDEFNFIKVLGKGSFGKVMLAELKGKDEVYAVKVLKKDVILQDDDVDCTMTEKRILALARKHPYLTQLYCCFQTKDRLFFVMEYVNGGDLMFQIQRSRKFDEPRSRFYAAEVTSALMFLHQHGVIYRDLKLDNILLDAEGHCKLADFGMCKEGILNGVTTTTFCGTPDYIAPEILQELEYGPSVDWWALGVLMYEMMAGQPPFEADNEDDLFESILHDDVLYPVWLSKEAVSILKAFMTKNPHKRLGCVASQNGEDAIKQHPFFKEIDWVLLEQKKIKPPFKPRIKTKRDVNNFDQDFTREEPVLTLVDEAIVKQINQEEFKGFSYFGEDLMP
As for B1, the “Km of the peptide substrate” value in data set [1] was 5.9 µM (PKCε).

As to Ac-RRQG[Dap](10‑hydroxydecanoyl)FMYF-Cysteamide [Compound B], the selectivity for PKC ζ versus a subset of other PKCs with a subset of other PKCs was less than 10 fold.

As for Ac-RRQG[Dap](Ac)FMYF-Cysteamide [Compound A (diacetylated consensus derivative)], the IC50, PKC kinase assay in data set [2] worked out at 50 µM.

As to {bis(2,3-dihydroxybenzyl)}-RRQG[Dap](4‑nitrohippuryl)FMYF-Cysteamide (reading uncertain) [Compound G (doubly alkylated analogue of F)], in data set [2], the Fold selectivity (IC50), PKC ζ = 1 was 693 fold and the IC50, PKC kinase assay (33P, peptide substrate) was determined as 5.2 µM.

B2: Compound C (peptide)
peptide: Ac-RRQG[Dap](4‑nitrohippuryl)FMYF-Cysteamide
SMILES: CSCC[C@H](NC(=O)[C@H](Cc1ccccc1)NC(=O)[C@H](CNC(=O)CNC(=O)c1ccc([N+](=O)[O-])cc1)NC(=O)CNC(=O)[C@H](CCC(N)=O)NC(=O)[C@H](CCCNC(=N)N)NC(=O)[C@H](CCCNC(=N)N)NC(C)=O)C(=O)N[C@@H](Cc1ccc(O)cc1)C(=O)N[C@@H](Cc1ccccc1)C(=O)NCCS
For the molecule B2, the selectivity for PKC ζ versus a subset of other PKCs in the data set with a subset of other PKCs is less than 10 fold.

As to H-RRQG[Dap]FMYF-Cysteamide (not fully specified (residue 5)) [Compound E (nonacylated free amine)], in data set [2], the IC50, PKC kinase assay (33P, peptide substrate) was found to be 0.025 µM and the Selectivity (IC50 relative to PKC βI = 1) amounted to 3.1 fold.

Turning to ARRGALR[Dap](Benzoyl(4-(pyrrol-1-yl)))A-Cysteamide (also: further groups not given here) [compound 6 (primary lead from library IV)], in data set [2], the selectivity for PKCα versus this isoform was 2730 fold.
